Paper PMC11864197 (Science Advances, 2025)

Assays:
[1] = molecular target: Full-length DDB1-DET1-DDA1 complex co-expressed with Ube2e2 (human, UniProt Q7L5Y6;Q16531;Q9BW61); assay: SEC
[2] = molecular target: DDA1 (human, UniProt Q9BW61 1-102); assay: cryo-EM structure
[3] = molecular target: the molecule itself; assay: multiple angle light scattering

Full-length DDB1-DET1-DDA1 complex co-expressed with Ube2e2, sequence (Q7L5Y6 whole entry, one chain of several): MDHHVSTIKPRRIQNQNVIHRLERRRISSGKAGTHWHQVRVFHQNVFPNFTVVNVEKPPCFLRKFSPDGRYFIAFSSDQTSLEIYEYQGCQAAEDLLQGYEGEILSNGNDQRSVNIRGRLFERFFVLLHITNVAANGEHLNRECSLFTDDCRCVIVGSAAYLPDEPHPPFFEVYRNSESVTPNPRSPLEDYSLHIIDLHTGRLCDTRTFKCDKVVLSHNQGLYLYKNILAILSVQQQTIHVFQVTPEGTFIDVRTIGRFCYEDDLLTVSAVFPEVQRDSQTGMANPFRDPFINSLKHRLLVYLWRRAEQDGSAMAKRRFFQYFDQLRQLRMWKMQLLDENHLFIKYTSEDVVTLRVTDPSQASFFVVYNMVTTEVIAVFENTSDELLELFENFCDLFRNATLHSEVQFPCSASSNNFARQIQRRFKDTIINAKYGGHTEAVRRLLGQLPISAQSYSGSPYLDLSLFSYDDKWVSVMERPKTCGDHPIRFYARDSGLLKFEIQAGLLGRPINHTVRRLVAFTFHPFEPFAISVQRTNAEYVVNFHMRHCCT

B1: Full-length Ube2e2 co-expressed with the DDD complex (enzyme)
chain: MSTEAQRVDDSPSTSGGSSDGDQRESVQQEPEREQVQPKKKEGKISSKTAAKLSTSAKRIQKELAEITLDPPPNCSAGPKGDNIYEWRSTILGPPGSVYEGGVFFLDITFSPDYPFKPPKVTFRTRIYHCNINSQGVICLDILKDNWSPALTISKVLLSICSLLTDCNPADPLVGSIATQYMTNRAEHDRMARQWTKRYAT
B1: binds [1].

B2: DDB1(ΔBPB) (natural protein)
chain: MSYNYVVTAQKPTAVNGCVTGHFTSAEDLNLLIAKNTRLEIYVVTAEGLRPVKEVGMYGKIAVMELFRPKGESKDLLFILTAKYNACILEYKQSGESIDIITRAHGNVQDRIGRPSETGIIGIIDPECRMIGLRLYDGLFKVIPLDRDNKELKAFNIRLEELHVIDVKFLYGCQAPTICFVYQDPQGRHVKTYEVSLREKEFNKGPWKQENVEAEASMVIAVPEPFGGAIIIGQESITYHNGDKYLAIAPPIIKQSTIVCHNRVDPNGSRYLLGDMEGRLFMLLLEKEEQMDGTVTLKDLRVELLGETSIAECLTYLDNGVVFVGSRLGDSQLVKLNVDSNEQGSYVVAMETFTNLGPIVDMCVVDLERQGQGQLVTCSGAFKEGSLRIIRNGIGIQKLHIRTVPLYESPRKICYQEVSQCFGVLSSRIEVQDTSGGTTALRPSASTQALSSSVSSSKLFSSSTAPHETSFGEEVEVHNLLIIDQHTFEVLHAHQFLQNEYALSLVSCKLGKDPNTYFIVGTAMVYPEEAEPKQGRIVVFQYSDGKLQTVAEKEVKGAVYSMVEFNGKLLASINSTVRLYEWTTEKELRTECNHYNNIMALYLKTKGDFILVGDLMRSVLLLAYKPMEGNFEEIARDFNPNWMSAVEILDDDNFLGAENAFNLFVCQKDSAATTDEERQHLQEVGLFHLGEFVNVFCHGSLVMQNLGETSTPTQGSVLFGTVNGMIGLVTSLSESWYNLLLDMQNRLNKVIKSVGKIEHSFWRSFHTERKTEPATGFIDGDLIESFLDISRPKMQEVVANLQYDDGSGMKREATADDLIKVVEELTRIH
B2: binds [2].

B3: COP1 RING domain (residues 126 to 208) (domain or fragment)
chain: SYEDKSNDFVCPICFDMIEEAYMTKCGHSFCYKCIHQSLEDNNRCPKCNYVVDNIDHLYPNFLVNELILKQKQRFEEKRFKLD
With B3 the “stoichiometry N” value [3] was 2.
